Assay results from patent publication US20090275637.

Target: T1, PTP1B catalytic domain (321 residues), GST fusion (Homo sapiens) (UniProt P18031)
T1 sequence: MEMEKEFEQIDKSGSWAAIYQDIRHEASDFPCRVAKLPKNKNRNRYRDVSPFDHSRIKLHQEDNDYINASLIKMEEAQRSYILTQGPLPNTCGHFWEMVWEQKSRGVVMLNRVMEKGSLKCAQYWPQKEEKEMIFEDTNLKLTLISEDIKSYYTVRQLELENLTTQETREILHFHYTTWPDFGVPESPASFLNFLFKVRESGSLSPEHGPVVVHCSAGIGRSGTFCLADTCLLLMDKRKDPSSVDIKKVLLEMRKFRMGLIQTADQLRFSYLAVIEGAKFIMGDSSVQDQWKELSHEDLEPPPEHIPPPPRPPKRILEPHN
Test: filter
Details: round 0 pool, 200-400 nM PTP1B, 125 mM NaCl, 5 mM MgCl2

Sequence: GGGAAUGGAUCCACAUCUACGAAUUCNNNNNNNNNNNNNNNNNNNNNNNNNNNNNNUUCACUGCAGACUUGACGAAGCUU [N30 initial pool]
- binding: < 1 % retained
